B1: Protein TEM1 (Saccharomyces cerevisiae), P38987 (parent)
chain: MATPSTGANNSIPAVRNQVEVQVGLVGDAQVGKTSLMVKYVQNIYDKEYTQTLGVNFLKRKVSIRSTDIIFSIMDLGGQREFINMLPIATVGSSVIIFLFDLTRPETLSSIKEWYRQAYGLNDSAIPILVGTKYDLLIDLDPEYQEQISRTSMKYAQVMNAPLIFCSTAKSINIQKIFKIALAKIFNLTLTIPEINEIGDPLLIYKHLGGQQHRHHNKSQDRKSHNIRKPSSSPSSKAPSPGVNT
partner: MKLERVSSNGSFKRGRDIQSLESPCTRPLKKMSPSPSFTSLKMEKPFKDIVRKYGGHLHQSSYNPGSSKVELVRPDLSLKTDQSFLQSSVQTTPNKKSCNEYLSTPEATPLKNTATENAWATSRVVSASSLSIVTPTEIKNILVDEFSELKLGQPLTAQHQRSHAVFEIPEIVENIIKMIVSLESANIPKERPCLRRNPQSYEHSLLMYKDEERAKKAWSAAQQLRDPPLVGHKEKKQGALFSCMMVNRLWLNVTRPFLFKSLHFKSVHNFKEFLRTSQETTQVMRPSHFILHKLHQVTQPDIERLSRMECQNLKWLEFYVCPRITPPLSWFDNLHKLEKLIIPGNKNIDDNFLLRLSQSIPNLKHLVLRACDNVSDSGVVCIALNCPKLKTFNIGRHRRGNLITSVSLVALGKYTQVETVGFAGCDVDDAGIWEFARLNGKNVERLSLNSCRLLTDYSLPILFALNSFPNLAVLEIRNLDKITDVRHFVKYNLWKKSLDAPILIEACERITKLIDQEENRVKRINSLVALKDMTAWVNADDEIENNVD
B2: Protein TEM1 (Saccharomyces cerevisiae), P38987 (parent)
chain: B1 chain
partner: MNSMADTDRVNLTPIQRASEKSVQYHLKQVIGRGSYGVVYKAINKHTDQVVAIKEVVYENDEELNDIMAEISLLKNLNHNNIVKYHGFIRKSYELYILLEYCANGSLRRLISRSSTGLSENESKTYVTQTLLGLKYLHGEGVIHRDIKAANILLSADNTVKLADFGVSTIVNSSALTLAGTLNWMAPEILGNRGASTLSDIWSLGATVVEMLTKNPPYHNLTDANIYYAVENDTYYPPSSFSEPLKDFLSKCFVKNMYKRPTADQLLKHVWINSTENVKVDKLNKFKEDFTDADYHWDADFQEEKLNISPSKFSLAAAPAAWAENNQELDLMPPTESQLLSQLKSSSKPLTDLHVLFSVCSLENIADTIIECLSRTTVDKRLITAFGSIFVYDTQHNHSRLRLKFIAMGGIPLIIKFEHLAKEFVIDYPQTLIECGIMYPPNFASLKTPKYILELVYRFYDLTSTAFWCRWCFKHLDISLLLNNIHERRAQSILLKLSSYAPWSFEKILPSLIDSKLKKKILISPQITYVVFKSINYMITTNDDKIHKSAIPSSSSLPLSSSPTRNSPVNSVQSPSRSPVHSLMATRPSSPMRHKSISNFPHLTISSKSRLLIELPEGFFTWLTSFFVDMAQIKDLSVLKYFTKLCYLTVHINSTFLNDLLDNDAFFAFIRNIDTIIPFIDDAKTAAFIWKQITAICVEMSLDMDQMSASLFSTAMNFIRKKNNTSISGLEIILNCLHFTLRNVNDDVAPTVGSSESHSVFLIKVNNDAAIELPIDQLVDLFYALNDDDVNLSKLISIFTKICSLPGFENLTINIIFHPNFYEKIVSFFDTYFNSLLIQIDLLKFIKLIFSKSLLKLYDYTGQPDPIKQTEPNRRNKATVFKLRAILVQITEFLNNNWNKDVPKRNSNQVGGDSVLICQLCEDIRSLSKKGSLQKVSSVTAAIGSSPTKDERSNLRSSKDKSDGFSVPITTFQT

Variants of: B1
Conditions: with amn1_yeast AMN1, P38285

Row | effect of a mutation on the interaction | Variant
1 | decreasing interaction | T34A
2 | disrupting interaction | D135A

Variants of: B2
Conditions: with cdc15_yeast CDC15, P27636

Row | effect of a mutation on the interaction | Variant
3 | disrupting interaction | T34A
4 | disrupting interaction | D135A

— IntAct's records for PubMed 12628189
